Assay results as given in publication PMC9299187.
Where two headings read alike, the source gives them in different places.

Columns and labels:
[1] = target: Chimera‐Long (human DHFR‐TYMS bifunctional chimeric enzyme with 20 amino acid linker) (human); experiment: SEC; Superdex 200 10/300, 0.1 M K-phosphate pH 7.5, calibrated with protein standards; IMAC fractions of the Chimera constructs
[2] = target: Chimera‐Short (human DHFR‐TYMS bifunctional chimeric enzyme with 10 amino acid linker) (human); experiment: as above
[3] = target: Chimera‐Long (human DHFR‐TYMS bifunctional chimeric enzyme with 20 amino acid linker) (human); experiment: SPR; Chimera-Long amine-coupled on a COOH2 chip (735 RU on Ch1, 175 RU on Ch3), SHMT1 as analyte 2.66-85 uM, 25 °C, 10 mM Hepes pH 7.4, 150 mM NaCl, 0.005% Tween-20; 1 : 1 bimolecular interaction model
[4] = target: Chimera‐Long (human DHFR‐TYMS bifunctional chimeric enzyme with 20 amino acid linker) (human); experiment: as above; remark: listed apart in the source
[5] = target: Chimera‐Long (human DHFR‐TYMS bifunctional chimeric enzyme with 20 amino acid linker) (human); experiment: BLI; Chimera held by mouse anti-DHFR on a Protein-A biosensor, SHMT1 as analyte 1-30 uM, kinetic titration series, kinetic buffer, 25 °C; two-exponential fit, heterogeneous binding model with two binding events

With “Chimera‐Long (human DHFR‐TYMS bifunctional chimeric enzyme with 20 amino acid linker)” the stoichiometry N [1] was 2.

“Chimera‐Short (human DHFR‐TYMS bifunctional chimeric enzyme with 10 amino acid linker)” was tested, and the stoichiometry N [2] was 2.

B1: serine hydroxymethyltransferase (SHMT1), purified recombinant, tetrameric (enzyme)
chain: DADLWSSHDKMLAQPLKDSDVEVYNIIKKESNRQRVGLELIASENFASRAVLEALGSCLNNKYSEGYPGQRYYGGTEFIDELETLCQKRALQAYKLDPQCWGVNVQPYSGSPANFAVYTALVEPHGRIMGLDLPDGGHLTHGFMTDKKKISATSIFFESMPYKVNPDTGYINYDQLEENARLFHPKLIIAGTSCYSRNLEYARLRKIADENGAYLMADMAHISGLVAAGVVPSPFEHCHVVTTTTHKTLRGCRAGMIFYRKGVKSVDPKTGKEILYNLESLINSAVFPGLQGGPHNHAIAGVAVALKQAMTLEFKVYQHQVVANCRALSEALTELGYKIVTGGSDNHLILVDLRSKGTDGGRAEKVLEACSIACNKNTCPGDRSALRPSGLRLGTPALTSRGLLEKDFQKVAHFIHRGIELTLQIQSDTGVRATLKEFKERLAGDKYQAAVQALREEVESFASLFPLPGL
B1 gave a Kd [3] of 2.9 µM, a Kd [4] of 2.5 µM and a koff [4] of 0.0025 s⁻¹. For the same molecule, the kon [4] was 470 M⁻¹ s⁻¹, the KD, binding 1 [5] was 16.4 µM and the KD, binding 2 [5] was 13.5 µM. It also gave a koff, binding 1 [5] of 0.2 s⁻¹, a koff, binding 2 [5] of 0.02 s⁻¹ and a kon, binding 1 [5] of 14000 M⁻¹ s⁻¹. For the same molecule, the kon, binding 2 [5] was 1600 M⁻¹ s⁻¹.
